Substitutions are numbered along the chain they refer to. In names and notes the source's numbering stands.
B1: MBP-Orai1 C_(272–292) (domain or fragment, human, UniProt Q96D31 272-292, looked up)
chain: ELNELAEFARLQDQLDHRGDH
B2: Orai1 C_(272–292) (peptide, UniProt Q96D31 272-292, looked up)
chain: ELNELAEFARLQDQLDHRGDH
B3: STIM1 CC1_([TM-distal])-CC2 A380R (domain or fragment, human, UniProt Q13586 312-387, looked up)
chain: SRQKYAEEELEQVREALRKAEKELESHSSWYAPEALQKWLQLTHEVEVQYYNIKKQNAEKQLLVAKEGREKIKKKR
B4: STIM1 CC1_([TM-distal])-CC2 E318Q/E319Q/E320Q/E322Q (domain or fragment, human, UniProt Q13586 312-387, looked up)
chain: B3 chain with E7Q, E8Q, E9Q, E11Q, R69A
B5: STIM1 CC1_([TM-distal])-CC2 I383R (domain or fragment, human, UniProt Q13586 312-387, looked up)
chain: B3 chain with R69A, I72R
B6: STIM1 CC1_([TM-distal])-CC2 K382E/K384E/K385E/K386E (domain or fragment, human, UniProt Q13586 312-387, looked up)
chain: B3 chain with R69A, K71E, K73E, K74E, K75E

How the values were obtained:
[1] = biological target: B4; test: pull-down
[2] = biological target: STIM1 CC1_([TM-distal])-CC2 V324P (human, UniProt Q13586 312-387, V324P); test: pull-down
Sequence of STIM1 CC1_([TM-distal])-CC2 V324P (Q13586 312-387 V324P): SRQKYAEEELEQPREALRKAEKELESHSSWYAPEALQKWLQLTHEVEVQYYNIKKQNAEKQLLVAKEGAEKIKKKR

[3] = biological target: B3; test: pull-down
[4] = biological target: B5; test: pull-down
[5] = biological target: STIM1 CC1_([TM-distal])-CC2 (residues 312-387) (human, UniProt Q13586 312-387); test: NMR titration
[6] = biological target: the molecule itself; test: SEC-MALS

## B1
[1]
  binding result: binds
[2]
  binding result: binds
[3]
  binding result: binds
[4]
  binding result: binds

## B2
[5]
  Kd: 100 to 600 µM

## B3
[6]
  binding result: binds

## B4
[6]
  binding result: binds

## B5
[6]
  binding result: binds

## B6
[6]
  binding result: binds
